Experimental data taken from the supplement of paper PMC7877785.
± gives the uncertainty stated by the source.

Assay: self-splicing fitness, log relative to wild type (ln ratio); higher = more splicing; Tetrahymena group I intron in knt gene, E. coli kanamycin selection, DiMSum; sequences stand for … in CUCUCU…GGAGGGAAAAGUUAUCAGGCAUGCACCUGGUAGCUAGUCUUUAAACCAAUAGAUUGCAUCGGUUUAAAAGGCAAGACCGUCAAAUUGCGGGAAAGGGGUCAACAGCCGUUCAGUACCAAGUCUCAGGGGAAACUUUGAGAUGGCCUUGCAAAGGGUAUGGUAAUAAGCUGACGGACAUGGUCCUAACCACGCAGCCAAGUCCUAAGUCAACAGAUCUUCUGUUGAUAUGGAUGCAGUUCACAGACUAAAUGUCGGUCGGGGAAGAUGUAUUCUUCUCAUAAGAUAUAGUCGGACCUCUCCUUAAUGGGAGCUAGCGGAUGAAGUGAUGCAACACUGGAGCCGCUGGGAACUAAUUUGUAUGCGAAAGUAUAUUGAUUAGUUUUGGAGUACUCGUGGUCG
Outline: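 The eight P1ex-region nucleotides of an intron in the knt kanamycin-resistance gene on pET-22b(+) were all randomised and the library put into E. coli BL21(DE3). Six replicate transformations were grown overnight at 37°C or 30°C on LB agar with or without 25 μg/mL kanamycin, together with 100 μg/mL carbenicillin, 50 μM IPTG and 0.2% rhamnose. Colonies were pooled and amplicon-sequenced on an Illumina HiSeq 2500. Fitness from DiMSum is the error-weighted combination of wild-type-normalised replicate fold changes, kanamycin over none.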

Sequence	self-splicing fitness (ln) (30 °C)	self-splicing fitness (ln) (37 °C)
ACAUAGCAAUAUUACGAGUU	-3.28 ± 0.18	-2.28 ± 0.2
ACAUAGCAAUAUUACGAUAU	-2.69 ± 0.15	-1.97 ± 0.14
ACAUAGCAAUAUUACGCCUA	-1.7 ± 0.24	-0.307 ± 0.2
ACAUAGCAAUAUUACGCCUG	-0.96 ± 0.16	-0.622 ± 0.15
ACAUAGCAAUAUUACGCGAU	-3.37 ± 0.21	-2.35 ± 0.25
ACAUAGCAAUAUUACGCGCG	-0.8 ± 0.12	-0.126 ± 0.16
ACAUAGCAAUAUUACGCGUC	-3.71 ± 0.18	-3.26 ± 0.28
ACAUAGCAAUAUUACGCGUG	-2.8 ± 0.1	-1.28 ± 0.12
ACAUAGCAAUAUUACGCUAG	-2 ± 0.11	-0.855 ± 0.13
ACAUAGCAAUAUUACGCUCG	-0.317 ± 0.091	0.247 ± 0.12
ACAUAGCAAUAUUACGGGAA	-2.36 ± 0.11	-1.7 ± 0.13
ACAUAGCAAUAUUACGGGAC	-3.23 ± 0.14	-1.37 ± 0.12
ACAUAGCAAUAUUACGGGGA	-2.65 ± 0.29	-1.92 ± 0.19
ACAUAGCAAUAUUACGUCGA	-1.95 ± 0.18	-1.64 ± 0.15
ACAUAGCAAUAUUACGUGCA	-0.639 ± 0.053	0.349 ± 0.063
ACAUAGCAAUAUUACGUGGC	-3.8 ± 0.23	-3.09 ± 0.27
ACAUAGCAAUAUUACGUGGU	-3.44 ± 0.16	-3.3 ± 0.24
ACCAAGCAAUAUUACGAACG	-1.61 ± 0.076	-0.581 ± 0.087
ACCAAGCAAUAUUACGAAGU	-3.09 ± 0.14	-1.31 ± 0.14
ACCAAGCAAUAUUACGAAUA	-2.69 ± 0.2	-2.1 ± 0.16
ACCAAGCAAUAUUACGACCA	-1.03 ± 0.081	-1.02 ± 0.1
ACCAAGCAAUAUUACGACGU	-0.00288 ± 0.056	0.552 ± 0.063
ACCAAGCAAUAUUACGAGAG	-3.53 ± 0.2	-2.3 ± 0.17
ACCAAGCAAUAUUACGAUAA	-3.07 ± 0.18	-1.46 ± 0.16

Sequence	self-splicing fitness (ln) (30 °C)	self-splicing fitness (ln) (37 °C)
ACCAAGCAAUAUUACGAUCA	-1.55 ± 0.086	-1.22 ± 0.075
ACCAAGCAAUAUUACGAUCU	-1.29 ± 0.064	0.0583 ± 0.076
ACCAAGCAAUAUUACGAUUC	-1.48 ± 0.1	-1.04 ± 0.14
ACCAAGCAAUAUUACGCACG	-1.92 ± 0.1	-0.625 ± 0.13
ACCAAGCAAUAUUACGCCCG	-1.42 ± 0.14	0.129 ± 0.15
ACCAAGCAAUAUUACGCUGA	-1.73 ± 0.1	-1.13 ± 0.11
ACCAAGCAAUAUUACGCUGC	-1.62 ± 0.063	-0.906 ± 0.076
ACCAAGCAAUAUUACGGAAU	-3.05 ± 0.11	-1.15 ± 0.096
ACCAAGCAAUAUUACGGACU	-0.029 ± 0.046	0.262 ± 0.062
ACCAAGCAAUAUUACGGAUU	-2.62 ± 0.081	-1.06 ± 0.081
ACCAAGCAAUAUUACGGGAU	-2.53 ± 0.088	-1.39 ± 0.083
ACCAAGCAAUAUUACGGUGA	-1.68 ± 0.1	-1.29 ± 0.083
ACCAAGCAAUAUUACGUCUC	-2.73 ± 0.094	-2.28 ± 0.12
ACCAAGCAAUAUUACGUGGU	-3.41 ± 0.1	-2.69 ± 0.13
ACCAAGCAAUAUUACGUGUU	-3.99 ± 0.093	-1.54 ± 0.075
ACCCAGCAAUAUUACGAACU	-1.33 ± 0.11	-0.29 ± 0.13
ACCCAGCAAUAUUACGACCU	-0.748 ± 0.062	-0.326 ± 0.074
ACCCAGCAAUAUUACGAGAC	-2.34 ± 0.17	-1.89 ± 0.18
ACCCAGCAAUAUUACGAGCA	-0.745 ± 0.08	-1.31 ± 0.088
ACCCAGCAAUAUUACGAGGC	-2.72 ± 0.1	-0.981 ± 0.089
ACCCAGCAAUAUUACGAGGU	-3.8 ± 0.12	-2.93 ± 0.14
ACCCAGCAAUAUUACGAUAC	-2.94 ± 0.17	-0.588 ± 0.13
ACCCAGCAAUAUUACGAUUG	-4.36 ± 0.19	-2.78 ± 0.16
